Laboratory results from PMC7696373.

Target: isoform CBd of the basic phospholipase A2 (PLA2) subunit of crotoxin (Crotalus durissus terrificus)
Assay: crystal structure

Substance: isoform CBd of the basic phospholipase A2 (PLA2) subunit of crotoxin (enzyme)
- stoichiometry N: 4
